# Laboratory results from IntAct's records for PubMed 20176808.
# B1: Inactive serine/threonine-protein kinase TEX14 (Mus musculus), Q7M6U3 (parent)
# chain: MSRGAPFPVPCPVLLGTFTDDSLEAQLHEYAKQGNCVKLKKILKKGVCVDAVNTQGQSALFVAALLGHVKLVDVLVDYGSDPNHRCFDGSTPVHAAAFSGNQWILSKLLTAGGDLRLHDEKGRNPQAWALTAGKDRSTQMVEFMQRCTSHMKAIIQGFSYDLLKKIDSPQRLIGSPPWFGSLIQGSPNSSPNRQLKPGIISAQNIYSFGFGKFYLTSGMQLTYPGSLPVIGEKEVVQADDEPTFSFFSGPYMVMTNLVWNRSRVTVKELNLPTRPHCSRLRLADLLIAEQEHSSNLRHPNLLQLMAVCLSRDLEKIRLVYERITVGTLFSVLHERRSQFPVLHMEVIVHLLLQVADALIYLHSRGFIHRSLSSYAVHIVSAGEARLTNLEYLTESQDSGAHRNVTRMPLPTQLYNWAAPEVVLQKAATVKSDIYSFSVIIQEILTDSIPWNGLDGSLVKETIALGNYLEADVRLPEPYYDIVKSGIHAKQKNRTMNLQDIRYILKNDLKEFIGAQKTQPTESPRGQSYEPHPDVNICLGLTSEYQKDPPDLDIKELKEMGSQPHSPTDHSFLTVKPTLAPQTLDSSLSAQKPDNANVPSPPAACLAEEVRSPTASQDSLCSFEINEIYSGCLTLGTDKEEECLGTAASPEGDRPNQGDELPSLEEELDKMERELHCFCEEDKSISEVDTDLLFEDDDWQSDSLGSLNLPEPTREAKGKTSSWSKTDEYVSKCVLNLKISQVMMQQSAEWLRKLEQEVEELEWAQKELDSQCSSLRDASLKFANAKFQPAVGPPSLAYLPPVMQLPGLKQPENGGTWLTLARSPGNEREFQEGHFSKKPEKLSACGWKPFTQVSEESRGDCSELNNQLPTLRGPGKQSTGEQLPSTQEARESLEKNTNQNSRSMASVSSEIYATKSRNNEDNGEAHLKWRLAVKEMAEKAVSGQLLLPPWNPQSSAPFESKVENESTPLPRPPIRGPESTEWQHILEYQRENDEPKGNTKFGKMDNSDCDKNKHSRWTGLQRFTGIRYPFFRNHEQPEQNEASQASCDTSVGTEKFYSTSSPIGDDFERFQDSFAQRQGYVEENFQIREIFEKNAEILTKPQFQAIQCAEDKQDETLGETPKELKEKNTSLTDIQDLSSITYDQDGYFKETSYKTPKLKHAPTSASTPLSPESISSAASHYEDCLENTTFHVKRGSTFCWNGQEAMRTLSAKFTTVRERAKSLESLLASSKSLPAKLTDSKRLCMLSETGSSNVSAAFVTSTHATKRKSLPRELAEATSQQHLDELPPPAQELLDEIEQLKQQQVSSLASHENTARDLSVTNKDKKHLEEQETNSSKDSSFLSSREIQDLEDTERAHSSLDEDLERFLQSPEENTALLDPTKGSTREKKNKDQDVVEQKRKKKESIKPERRESDSSLGTLEEDELKPCFWKRLGWSEPSRIIVLDQSDLSD
# partner: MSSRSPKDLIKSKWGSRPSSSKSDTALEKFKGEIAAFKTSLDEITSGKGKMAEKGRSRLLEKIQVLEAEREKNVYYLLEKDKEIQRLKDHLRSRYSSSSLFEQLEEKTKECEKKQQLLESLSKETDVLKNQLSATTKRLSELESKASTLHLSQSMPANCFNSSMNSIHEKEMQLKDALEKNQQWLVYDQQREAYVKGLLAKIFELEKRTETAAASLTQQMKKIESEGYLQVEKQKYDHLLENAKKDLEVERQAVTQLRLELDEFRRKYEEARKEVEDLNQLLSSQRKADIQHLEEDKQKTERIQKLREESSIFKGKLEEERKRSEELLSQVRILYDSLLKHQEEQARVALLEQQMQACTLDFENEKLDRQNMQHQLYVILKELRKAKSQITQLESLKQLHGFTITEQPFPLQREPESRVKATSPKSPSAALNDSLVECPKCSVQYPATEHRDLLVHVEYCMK
# Variants of: B1
# Details: with cep55_mouse Cep55, Q8BT07
row,effect of a mutation on the interaction,Variant
1,disrupting interaction,P792A
2,disrupting interaction,Y797A
3,decreasing interaction,P793A
